Measured values published in the supplement of paper PMC11246515.
± gives the standard deviation of the averaged measurements.

Test: total protein half-life in vivo (active degradation + dilution); higher = more stable protein
[1] = E. coli NCM3722 delta-clpP delta-lon delta-hslV, growth: N-lim chemostat, doubling time 6 h
[2] = wild type E. coli NCM3722, growth: N-lim chemostat, doubling time 6 h
[3] = wild type E. coli NCM3722, growth: P-lim chemostat, doubling time 6 h
[4] = wild type E. coli NCM3722, growth: N-lim chemostat, doubling time 12 h
[5] = wild type E. coli NCM3722, growth: P-lim chemostat, doubling time 12 h
[6] = E. coli NCM3722 delta-clpP, growth: N-lim chemostat, doubling time 6 h
[7] = E. coli NCM3722 delta-hslV, growth: N-lim chemostat, doubling time 6 h
[8] = E. coli NCM3722 delta-lon, growth: N-lim chemostat, doubling time 6 h
[9] = E. coli NCM3722 delta-smpB, growth: N-lim chemostat, doubling time 6 h
[10] = wild type E. coli NCM3722, growth: C-lim chemostat, doubling time 3 h
[11] = wild type E. coli NCM3722, growth: C-lim chemostat, doubling time 6 h
[12] = wild type E. coli NCM3722, growth: C-lim chemostat, doubling time 12 h

Sequence	total protein half-life in vivo [1] [h]	total protein half-life in vivo [2] [h]	total protein half-life in vivo [3] [h]	total protein half-life in vivo [4] [h]	total protein half-life in vivo [5] [h]	total protein half-life in vivo [6] [h]	total protein half-life in vivo [7] [h]	total protein half-life in vivo [8] [h]	total protein half-life in vivo [9] [h]	total protein half-life in vivo [10] [h]	total protein half-life in vivo [11] [h]	total protein half-life in vivo [12] [h]
MMDNDNSLNKRPTFKRALRNISMTSIFITMMLIWLLLSVTSVLTLKQYAQKNLALTAATMTYSLEAAVVFADGPAATETLAALGQQGQFSTAEVRDKQQNILASWHYTRKDPGDTFSNFISHWLFPAPIIQPIRHNGETIGEVRLTARDSSISHFIWFSLAVLTGCILLASGIAITLTRHLHNGLVEALKNITDVVHDVRSNRNFSRRVSEERIAEFHRFALDFNSLLDEMEEWQLRLQAKNAQLLRTALHDPLTGLANRAAFRSGINTLMNNSDARKTSALLFLDGDNFKYINDTWGHATGDRVLIEIAKRLAEFGGLRHKAYRLGGDEFAMVLYDVQSESEVQQICSALTQIFNLPFDLHNGHQTTMTLSIGYAMTIEHASAEKLQELADHNMYQAKHQRAEKLVR	4.053 ± 0.0067	0.877	1.69									
MMEQSLIPQTPVLPLTAQRTVKRALTLLDRHLRETGVAFTSTQAARDWLKLKMAGLEREEFMMLYLNQQNQLIAHETLFAGSISSTEVHPREVVKRALYFNAAAVILAHNHPSGDTTPSQADKTITQRLVQALQLVDIRVPDHLIVGGRQIYSFAEHGLL				8.33	10.4							
MMGKLIWLMGPSGSGKDSLLAELRLREQTQLLVAHRYITRDASAGSENHIALSEQEFFTRAGQNLLALSWHANGLYYGVGVEIDLWLHAGFDVLVNGSRAHLPQARARYQSALLPVCLQVSPEILRQRLENRGRENASEINARLARAARYTPQDCHTLNNDGSLRQSVDTLLTLIHQKEKHHACL	5.33		0.578		1.28							
MMILSILATVVLLGALFYHRVSLFISSLILLAWTAALGVAGLWSAWVLVPLAIILVPFNFAPMRKSMISAPVFRGFRKVMPPMSRTEKEAIDAGTTWWEGDLFQGKPDWKKLHNYPQPRLTAEEQAFLDGPVEEACRMANDFQITHELADLPPELWAYLKEHRFFAMIIKKEYGGLEFSAYAQSRVLQKLSGVSGILAITVGVPNSLGPGELLQHYGTDEQKDHYLPRLARGQEIPCFALTSPEAGSDAGAIPDTGIVCMGEWQGQQVLGMRLTWNKRYITLAPIATVLGLAFKLSDPEKLLGGAEDLGITCALIPTTTPGVEIGRRHFPLNVPFQNGPTRGKDVFVPIDYIIGGPKMAGQGWRMLVECLSVGRGITLPSNSTGGVKSVALATGAYAHIRRQFKISIGKMEGIEEPLARIAGNAYVMDAAASLITYGIMLGEKPAVLSAIVKYHCTHRGQQSIIDAMDITGGKGIMLGQSNFLARAYQGAPIAITVEGANILTRSMMIFGQGAIRCHPYVLEEMEAAKNNDVNAFDKLLFKHIGHVGSNKVRSFWLGLTRGLTSSTPTGDATKRYYQHLNRLSANLALLSDVSMAVLGGSLKRRERISARLGDILSQLYLASAVLKRYDDEGRNEADLPLVHWGVQDALYQAEQAMDDLLQNFPNRVVAGLLNVVIFPTGRHYLAPSDKLDHKVAKILQVPNATRSRIGRGQYLTPSEHNPVGLLEEALVDVIAADPIHQRICKELGKNLPFTRLDELAHNALVKGLIDKDEAAILVKAEESRLRSINVDDFDPEELATKPVKLPEKVRKVEAA	6.66 ± 0.19	2.2 ± 0.1	2.01 ± 0.24	3.64 ± 0.49	3.65 ± 0.59	5.65 ± 0.067	2.2 ± 0.21	2.48 ± 0.52	1.82 ± 0.079	1.43 ± 0.11	1.86 ± 0.12	2.9 ± 0.51
MMILVTGGARSGKSRHAEALIGDSSQVLYIATSQILDDEMAARIEHHRQGRPEHWRTVERWQHLDELIHADINPNEVVLLECVTTMVTNLLFDYGGDKDPDEWDYQAMEQAINAEIQSLIAACQRCPAKVVLVTNEVGMGIVPESRLARHFRDIAGRVNQQLAAAANEVWLVVSGIGVKIK [P0AE76]	4.52	3.85	5.94	8.3	9.83 ± 1.8	3.9	4.32		4.68		5.17	10.5
MMITLRKLPLAVAVAAGVMSAQAMAVDFHGYARSGIGWTGSGGEQQCFQTTGAQSKYRLGNECETYAELKLGQEVWKEGDKSFYFDTNVAYSVAQQNDWEATDPAFREANVQGKNLIEWLPGSTIWAGKRFYQRHDVHMIDFYYWDISGPGAGLENIDVGFGKLSLAATRSSEAGGSSSFASNNIYDYTNETANDVFDVRLAQMEINPGGTLELGVDYGRANLRDNYRLVDGASKDGWLFTAEHTQSVLKGFNKFVVQYATDSMTSQGKGLSQGSGVAFDNEKFAYNINNNGHMLRILDHGAISMGDNWDMMYVGMYQDINWDNDNGTKWWTVGIRPMYKWTPIMSTVMEIGYDNVESQRTGDKNNQYKITLAQQWQAGDSIWSRPAIRVFATYAKWDEKWGYDYTGNADNNANFGKAVPADFNGGSFGRGDSDEWTFGAQMEIWW	6.61	> 8	7.548 ± 0.042	> 16	> 16	> 8			6.71 ± 0.23	3.38 ± 0.6	6.85 ± 1.6	> 16
MMKLMFASDIHGSLPATERVLELFAQSGAQWLVILGDVLNHGPRNALPEGYAPAKVAERLNEVAHKVIAVRGNCDSEVDQMLLHFPITAPWQQVLLEKQRLFLTHGHLFGPENLPALNQNDVLVYGHTHLPVAEQRGEIFHFNPGSVSIPKGGNPASYGMLDNDVLSVIALNDQSIIAQVAINP		4 ± 0.66	5.32 ± 0.64	6.84 ± 0.35	10.1 ± 0.38	4.01 ± 0.21	3.75 ± 0.28	4.04 ± 0.35	3.97 ± 0.34	2.7 ± 0.24	5.48 ± 0.14	9.4066 ± 0.0045
MMLSKKNSETLENFSEKLEVEGRSLWQDARRRFMHNRAAVASLIVLVLIALFVILAPMLSQFAYDDTDWAMMSSAPDMESGHYFGTDSSGRDLLVRVAIGGRISLMVGVAAALVAVVVGTLYGSLSGYLGGKVDSVMMRLLEILNSFPFMFFVILLVTFFGQNILLIFVAIGMVSWLDMARIVRGQTLSLKRKEFIEAAQVGGVSTSGIVIRHIVPNVLGVVVVYASLLVPSMILFESFLSFLGLGTQEPLSSWGALLSDGANSMEVSPWLLLFPAGFLVVTLFCFNFIGDGLRDALDPKDR [P0AFH6]	5.16 ± 0.26	5.17 ± 0.17	5.37 ± 0.46	8.49 ± 0.1	9.83 ± 1.2	5.51 ± 0.1		4.46 ± 0.22	5.01 ± 0.59	3.23 ± 0.41	5.484 ± 0.036	10.8 ± 2.5
MMNFNNVFRWHLPFLFLVLLTFRAAAADTLLILGDSLSAGYRMSASAAWPALLNDKWQSKTSVVNASISGDTSQQGLARLPALLKQHQPRWVLVELGGNDGLRGFQPQQTEQTLRQILQDVKAANAEPLLMQIRLPANYGRRYNEAFSAIYPKLAKEFDVPLLPFFMEEVYLKPQWMQDDGIHPNRDAQPFIADWMAKQLQPLVNHDS [P0ADA1]	4.1 ± 0.072	5.25 ± 0.28	5.23 ± 0.37	11 ± 3.7	11.4 ± 0.78	4.87 ± 0.67	6.432 ± 0.063	6.67 ± 0.4	4.99 ± 0.46	3.25 ± 0.11	6.228 ± 0.058	11.1 ± 5.7
MMNKSNFEFLKGVNDFTYAIACAAENNYPDDPNTTLIKMRMFGEATAKHLGLLLNIPPCENQHDLLRELGKIAFVDDNILSVFHKLRRIGNQAVHEYHNDLNDAQMCLRLGFRLAVWYYRLVTKDYDFPVPVFVLPERGENLYHQEVLTLKQQLEQQVREKAQTQAEVEAQQQKLVALNGYIAILEGKQQETEAQTQARLAALEAQLAEKNAELAKQTEQERKAYHKEITDQAIKRTLNLSEEESRFLIDAQLRKAGWQADSKTLRFSKGARPEPGVNKAIAEWPTGKDETGNQGFADYVLFVGLKPIAVVEAKRNNIDVPARLNESYRYSKCFDNGFLRETLLEHYSPDEVHEAVPEYETSWQDTSGKQRFKIPFCYSTNGREYRATMKTKSGIWYRDVRDTRNMSKALPEWHRPEELLEMLGSEPQKQNQWFADNPGMSELGLRYYQEDAVRAVEKAIVKGQQEILLAMATGTGKTRTAIAMMFRLIQSQRFKRILFLVDRRSLGEQALGAFEDTRINGDTFNSIFDIKGLTDKFPEDSTKIHVATVQSLVKRTLQSDEPMPVARYDCIVVDEAHRGYILDKEQTEGELQFRSQLDYVSAYRRILDHFDAVKIALTATPALHTVQIFGEPVYRYTYRTAVIDGFLIDQDPPIQIITRNAQEGVYLSKGEQVERISPQGEVINDTLEDDQDFEVADFNRGLVIPAFNRAVCNELTNYLDPTGSQKTLVFCVTNAHADMVVEELRAAFKKKYPQLEHDAIIKITGDADKDARKVQTMITRFNKERLPNIVVTVDLLTTGVDIPSICNIVFLRKVRSRILYEQMKGRATRLCPEVNKTSFKIFDCVDIYSTLESVDTMRPVVVRPKVELQTLVNEITDSETYKITEADGRSFAEHSHEQLVAKLQRIIGLATFNRDRSETIDKQVRRLDELCQDAAGVNFNGFASRLREKGPHWSAEVFNKLPGFIARLEKLKTDINNLNDAPIFLDIDDEVVSVKSLYGDYDTPQDFLEAFDSLVQRSPNAQPALQAVINRPRDLTRKGLVELQEWFDRQHFEESSLRKAWKETRNEDIAARLIGHIRRAAVGDALKPFEERVDHALTRIKGENDWSSEQLSWLDRLAQALKEKVVLDDDVFKTGNFHRRGGKAMLQRTFDDNLDTLLGKFSDYIWDELA	5.34 ± 0.76	3.52 ± 0.2	3.94 ± 0.11	5.31 ± 0.98	6.58 ± 0.092	4.93 ± 0.26	3.45 ± 0.22	3.899 ± 0.015	3.07 ± 0.13	2.49 ± 0.13	4.7 ± 0.1	7.2 ± 0.38
MMNPVLWLQMTNMISYQGLVRTFLNKNDLKAFIAFPSSLYPDDPNWIPPLFIERNEHLSAKNPGTDHIIWQAWVAKKAGQIVGRITAQIDTLHRERYGKDTGHFGMIDAIDDPQVFAALFGAAEAWLKSQGASKISGPFSLNINQESGLLIEGFDTPPCAMMPHGKPWYAAHIEQLGYHKGIDLLAWWMQRTDLTFSPALKKLMDQVRKKVTIRCINRQRFAEEMQILREIFNSGWQHNWGFVPFTEHEFATMGDQLKYLVPDDMIYIAEIDSAPCAFIVGLPNINEAIADLNGSLFPFGWAKLLWRLKVSGVRTARVPLMGVRDEYQFSRIGPVIALLLIEALRDPFARRKIDALEMSWILETNTGMNNMLERIGAEPYKRYRLYEKQI							2.23		3.38			
MMNTEGNNGNKPLGLWNVVSIGIGAMVGAGIFALLGQAALLMEASTWVAFAFGGIVAMFSGYAYARLGASYPSNGGIIDFFRRGLGNGVFSLALSLLYLLTLAVSIAMVARAFGAYAVQFLHEGSQEEHLILLYALGIIAVMTLFNSLSNHAVGRLEVILVGIKMMILLLLIIAGVWSLQPAHISVSAPPSSGAFFSCIGITFLAYAGFGMMANAADKVKDPQVIMPRAFLVAIGVTTLLYISLALVLLSDVSALELEKYADTAVAQAASPLLGHVGYVIVVIGALLATASAINANLFAVFNIMDNMGSERELPKLMNKSLWRQSTWGNIIVVVLIMLMTAALNLGSLASVASATFLICYLAVFVVAIRLRHDIHASLPILIVGTLVMLLVIVGFIYSLWSQGSRALIWIIGSLLLSLIVAMVMKRNKTV						6.11						
MMQHQVNVSARFNPETLERVLRVVRHRGFHVCSMNMAAASDAQNINIELTVASPRSVDLLFSQLNKLVDVAHVAICQSTTTSQQIRA [P0ADG1]		0.823	0.343	0.848 ± 0.14	0.967 ± 0.53	0.96		0.664		0.829 ± 0.59	0.318	0.533
MMQPVINAPEIATAREQQLFNGKNFHVFIYNKTESISGLHQHDYYEFTLVLTGRYFQEINGKRVLLERGDFVFIPLGSHHQSFYEFGATRILNVGISKRFFEQHYLPLLPYCFVASQVYRTNNAFLTYVETVISSLNFRETGLEEFVEMVTFYVINRLRHYREEQVIDDVPQWLKSTVEKMHDKEQFSESALENMVALSAKSQEYLTRATQRYYGKTPMQIINEIRINFAKKQLEMTNYSVTDIAFEAGYSSPSLFIKTFKKLTSFTPKSYRKKLTEFNQ	5.04 ± 0.62									1.18 ± 0.012	1.89 ± 0.2	1.55
